Data from patent publication US20250339531A1, “DUX4 POLYPEPTIDES AND NUCLEIC ACIDS FOR TREATING INFLAMMATORY AND AUTOIMMUNE CONDITIONS” (Fred Hutchinson Cancer Center, priority 2021, published 2025).

Columns and labels:
Assay in all cases: anti-FLAG co-IP LC-MS, exp 4, +Dox +IFNG
[1] = target: WD repeat-containing protein 1 (Homo sapiens) (UniProt O75083)
[2] = target: Endoplasmic reticulum chaperone BiP (Homo sapiens) (UniProt P11021)
[3] = target: Heat shock protein HSP 90-alpha (Homo sapiens) (UniProt P07900)
[4] = target: Tubulin beta-4B chain (Homo sapiens) (UniProt P68371)
[5] = target: Coronin-1C (Homo sapiens) (UniProt Q9ULV4)
[6] = target: Src substrate cortactin (Homo sapiens) (UniProt Q14247)
[7] = target: 40S ribosomal protein S3 (Homo sapiens) (UniProt P23396)
[8] = target: AP-2 complex subunit mu (Homo sapiens) (UniProt E9PFW3)
Filamin-C (Homo sapiens) = Filamin-C (Homo sapiens) (UniProt Q14315)
[9] = target: Clathrin heavy chain (Homo sapiens) (UniProt Q00610)
[10] = target: 40S ribosomal protein S8 (Homo sapiens) (UniProt P62241)
[11] = target: AP-2 complex subunit alpha-1 (Homo sapiens) (UniProt O95782)
[12] = target: Probable ubiquitin carboxyl-terminal hydrolase FAF-X (Homo sapiens) (UniProt Q93008)
[13] = target: Actin-related protein 3 (Homo sapiens) (UniProt P61158)
[14] = target: Tubulin beta chain (Homo sapiens) (UniProt P07437)
[15] = target: Protein S100-A6 (Homo sapiens) (UniProt P06703)
[16] = target: 40S ribosomal protein S6 (Homo sapiens) (UniProt P62753)
[17] = target: Elongation factor 1-delta (Homo sapiens)
[18] = target: Alpha-actinin-1 (Homo sapiens) (UniProt P12814)
[19] = target: Procollagen-lysine,2-oxoglutarate 5-dioxygenase 2 (Homo sapiens) (UniProt O00469)
[20] = target: Heat shock protein HSP 90-beta (Homo sapiens) (UniProt P08238)
[21] = target: Alpha-actinin-4 (Homo sapiens) (UniProt O43707)
[22] = target: Ras GTPase-activating protein-binding protein 1 (Homo sapiens) (UniProt Q13283)
[23] = target: Prelamin-A/C (Homo sapiens) (UniProt P02545)
[24] = target: Histone-binding protein RBBP7 (Homo sapiens) (UniProt Q16576)
[25] = target: Tubulin beta-6 chain (Homo sapiens) (UniProt Q9BUF5)
[26] = target: Protease serine 2 preproprotein (Homo sapiens) (UniProt A6XMV9)
[27] = target: Tubulin alpha chain (Homo sapiens) (UniProt F5H5D3)
[28] = target: Plasminogen activator inhibitor 1 (Homo sapiens) (UniProt P05121)
[29] = target: Eukaryotic initiation factor 4A-II (Homo sapiens) (UniProt Q14240)
[30] = target: Serine/threonine-protein kinase 38 (Homo sapiens) (UniProt Q15208)
[31] = target: Transportin-1 (Homo sapiens) (UniProt Q92973)
[32] = target: Calpain-2 catalytic subunit (Homo sapiens) (UniProt P17655)
[33] = target: Serine/threonine-protein phosphatase 2A 65 kDa regulatory subunit A alpha isoform (Homo sapiens) (UniProt P30153)
[34] = target: Neuroblast differentiation-associated protein AHNAK (Homo sapiens) (UniProt Q09666)
[35] = target: ADP/ATP translocase 2 (Homo sapiens) (UniProt P05141)
[36] = target: Ubiquitin carboxyl-terminal hydrolase 11 (Homo sapiens) (UniProt P51784)
Sequence of Ubiquitin carboxyl-terminal hydrolase 11 (Homo sapiens) (P51784 whole entry): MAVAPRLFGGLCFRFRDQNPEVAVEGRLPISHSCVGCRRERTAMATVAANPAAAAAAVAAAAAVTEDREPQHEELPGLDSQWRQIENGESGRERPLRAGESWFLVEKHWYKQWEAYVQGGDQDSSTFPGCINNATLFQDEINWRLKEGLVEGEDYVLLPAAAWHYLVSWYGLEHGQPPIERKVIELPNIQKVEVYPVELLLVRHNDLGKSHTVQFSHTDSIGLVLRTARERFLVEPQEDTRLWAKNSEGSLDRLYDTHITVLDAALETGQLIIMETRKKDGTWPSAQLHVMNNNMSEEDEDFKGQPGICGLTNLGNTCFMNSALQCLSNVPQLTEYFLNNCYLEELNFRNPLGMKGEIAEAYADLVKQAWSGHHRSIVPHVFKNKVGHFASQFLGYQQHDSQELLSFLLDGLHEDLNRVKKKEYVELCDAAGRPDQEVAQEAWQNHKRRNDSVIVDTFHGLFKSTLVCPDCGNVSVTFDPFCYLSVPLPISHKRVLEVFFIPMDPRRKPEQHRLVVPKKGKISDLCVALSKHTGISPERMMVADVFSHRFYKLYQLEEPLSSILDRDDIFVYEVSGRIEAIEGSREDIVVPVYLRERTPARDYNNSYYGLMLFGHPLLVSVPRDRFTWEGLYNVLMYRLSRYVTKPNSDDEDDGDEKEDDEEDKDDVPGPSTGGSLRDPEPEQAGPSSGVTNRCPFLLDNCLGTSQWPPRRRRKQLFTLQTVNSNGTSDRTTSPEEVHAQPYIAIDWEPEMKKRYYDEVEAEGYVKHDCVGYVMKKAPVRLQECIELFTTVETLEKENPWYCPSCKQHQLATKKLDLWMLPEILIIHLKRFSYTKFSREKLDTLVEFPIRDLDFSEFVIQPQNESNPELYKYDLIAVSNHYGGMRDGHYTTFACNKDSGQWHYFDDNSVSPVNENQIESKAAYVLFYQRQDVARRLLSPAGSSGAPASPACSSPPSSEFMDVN

Sequence of Transportin-1 (Homo sapiens) (Q92973 whole entry): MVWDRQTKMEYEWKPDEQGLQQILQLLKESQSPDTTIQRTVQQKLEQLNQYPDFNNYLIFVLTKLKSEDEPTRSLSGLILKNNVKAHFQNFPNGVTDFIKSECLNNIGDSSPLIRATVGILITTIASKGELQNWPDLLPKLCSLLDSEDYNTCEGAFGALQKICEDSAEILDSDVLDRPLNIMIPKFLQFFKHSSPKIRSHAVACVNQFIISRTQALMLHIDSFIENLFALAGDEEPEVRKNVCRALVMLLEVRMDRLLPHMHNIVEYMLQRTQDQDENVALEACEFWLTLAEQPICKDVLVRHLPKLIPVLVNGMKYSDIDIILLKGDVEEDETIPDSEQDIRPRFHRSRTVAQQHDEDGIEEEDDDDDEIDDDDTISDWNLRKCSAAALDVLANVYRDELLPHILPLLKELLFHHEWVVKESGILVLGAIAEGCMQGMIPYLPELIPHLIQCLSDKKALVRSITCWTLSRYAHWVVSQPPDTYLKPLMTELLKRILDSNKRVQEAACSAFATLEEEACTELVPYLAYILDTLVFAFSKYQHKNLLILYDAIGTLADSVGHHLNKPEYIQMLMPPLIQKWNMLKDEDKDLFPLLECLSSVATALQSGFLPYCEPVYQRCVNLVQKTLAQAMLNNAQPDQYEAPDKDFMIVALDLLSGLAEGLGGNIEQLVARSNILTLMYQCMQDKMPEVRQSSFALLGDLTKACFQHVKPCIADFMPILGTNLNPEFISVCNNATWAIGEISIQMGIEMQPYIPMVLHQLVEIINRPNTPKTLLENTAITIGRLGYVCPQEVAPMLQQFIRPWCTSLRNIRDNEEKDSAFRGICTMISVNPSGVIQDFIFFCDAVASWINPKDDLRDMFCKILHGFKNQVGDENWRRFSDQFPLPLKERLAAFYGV
Sequence of WD repeat-containing protein 1 (Homo sapiens) (O75083 whole entry): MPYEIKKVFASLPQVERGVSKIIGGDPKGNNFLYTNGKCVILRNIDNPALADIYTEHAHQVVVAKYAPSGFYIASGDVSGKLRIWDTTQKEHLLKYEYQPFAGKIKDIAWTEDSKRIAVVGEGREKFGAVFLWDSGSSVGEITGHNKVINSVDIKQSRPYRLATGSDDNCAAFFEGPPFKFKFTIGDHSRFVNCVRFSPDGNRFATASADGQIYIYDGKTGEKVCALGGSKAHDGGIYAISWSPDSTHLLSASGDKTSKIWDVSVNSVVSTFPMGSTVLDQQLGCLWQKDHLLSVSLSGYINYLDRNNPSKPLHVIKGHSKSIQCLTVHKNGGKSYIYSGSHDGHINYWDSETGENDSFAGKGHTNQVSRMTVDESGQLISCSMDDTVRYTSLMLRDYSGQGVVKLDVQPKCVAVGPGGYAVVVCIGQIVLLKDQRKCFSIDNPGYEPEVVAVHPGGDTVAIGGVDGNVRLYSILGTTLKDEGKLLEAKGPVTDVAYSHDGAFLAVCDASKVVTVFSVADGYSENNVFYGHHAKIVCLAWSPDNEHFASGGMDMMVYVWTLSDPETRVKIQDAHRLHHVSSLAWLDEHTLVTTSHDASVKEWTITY
Sequence of Tubulin alpha chain (Homo sapiens) (F5H5D3 entry or part of it limits assumed, form in doubt): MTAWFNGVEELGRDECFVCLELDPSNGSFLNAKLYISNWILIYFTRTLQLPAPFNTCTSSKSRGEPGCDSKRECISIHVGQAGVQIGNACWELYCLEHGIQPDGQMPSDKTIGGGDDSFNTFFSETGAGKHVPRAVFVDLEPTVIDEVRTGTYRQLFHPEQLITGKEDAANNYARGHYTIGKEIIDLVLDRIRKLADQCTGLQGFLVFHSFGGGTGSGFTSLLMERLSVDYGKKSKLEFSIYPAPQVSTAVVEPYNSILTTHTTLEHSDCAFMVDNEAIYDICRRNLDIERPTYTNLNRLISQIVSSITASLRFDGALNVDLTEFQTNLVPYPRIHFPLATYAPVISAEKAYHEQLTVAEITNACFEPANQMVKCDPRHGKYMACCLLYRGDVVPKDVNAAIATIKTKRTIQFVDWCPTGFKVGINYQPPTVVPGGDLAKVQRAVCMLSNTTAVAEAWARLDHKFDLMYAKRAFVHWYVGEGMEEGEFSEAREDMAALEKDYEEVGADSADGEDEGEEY
Sequence of Heat shock protein HSP 90-beta (Homo sapiens) (P08238 2-724 limits assumed): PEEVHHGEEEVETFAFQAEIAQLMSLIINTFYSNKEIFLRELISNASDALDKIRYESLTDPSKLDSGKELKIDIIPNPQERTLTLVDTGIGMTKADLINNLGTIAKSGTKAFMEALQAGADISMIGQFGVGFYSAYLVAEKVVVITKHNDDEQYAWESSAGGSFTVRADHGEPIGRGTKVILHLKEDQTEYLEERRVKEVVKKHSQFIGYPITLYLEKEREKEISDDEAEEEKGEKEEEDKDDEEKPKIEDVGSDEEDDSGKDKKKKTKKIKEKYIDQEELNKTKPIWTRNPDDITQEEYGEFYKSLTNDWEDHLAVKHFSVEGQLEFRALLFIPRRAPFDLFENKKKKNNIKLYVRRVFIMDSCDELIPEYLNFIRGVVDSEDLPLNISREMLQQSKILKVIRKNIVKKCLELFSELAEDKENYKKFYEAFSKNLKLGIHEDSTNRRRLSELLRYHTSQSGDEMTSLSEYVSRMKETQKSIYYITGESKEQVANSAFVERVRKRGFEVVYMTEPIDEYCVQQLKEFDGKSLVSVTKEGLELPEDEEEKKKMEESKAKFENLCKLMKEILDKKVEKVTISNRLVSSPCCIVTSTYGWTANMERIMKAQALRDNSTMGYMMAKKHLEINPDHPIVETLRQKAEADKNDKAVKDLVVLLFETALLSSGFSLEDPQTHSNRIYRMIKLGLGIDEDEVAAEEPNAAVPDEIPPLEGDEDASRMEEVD
Sequence of Src substrate cortactin (Homo sapiens) (Q14247 whole entry): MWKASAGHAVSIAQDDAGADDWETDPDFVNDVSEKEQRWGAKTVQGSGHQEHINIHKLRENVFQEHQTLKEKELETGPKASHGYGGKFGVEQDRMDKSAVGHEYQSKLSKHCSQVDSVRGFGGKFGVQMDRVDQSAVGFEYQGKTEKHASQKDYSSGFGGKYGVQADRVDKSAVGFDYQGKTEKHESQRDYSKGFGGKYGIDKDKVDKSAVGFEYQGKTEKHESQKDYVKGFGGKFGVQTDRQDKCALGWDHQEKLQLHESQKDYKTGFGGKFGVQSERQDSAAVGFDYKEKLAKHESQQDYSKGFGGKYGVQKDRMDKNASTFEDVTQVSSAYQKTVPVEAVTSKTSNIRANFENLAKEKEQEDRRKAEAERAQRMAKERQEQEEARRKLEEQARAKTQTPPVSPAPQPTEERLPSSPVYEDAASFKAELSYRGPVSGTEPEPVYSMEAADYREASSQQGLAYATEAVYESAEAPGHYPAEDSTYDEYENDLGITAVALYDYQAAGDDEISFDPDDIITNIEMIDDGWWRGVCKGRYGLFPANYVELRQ
Sequence of ADP/ATP translocase 2 (Homo sapiens) (P05141 2-298 limits assumed): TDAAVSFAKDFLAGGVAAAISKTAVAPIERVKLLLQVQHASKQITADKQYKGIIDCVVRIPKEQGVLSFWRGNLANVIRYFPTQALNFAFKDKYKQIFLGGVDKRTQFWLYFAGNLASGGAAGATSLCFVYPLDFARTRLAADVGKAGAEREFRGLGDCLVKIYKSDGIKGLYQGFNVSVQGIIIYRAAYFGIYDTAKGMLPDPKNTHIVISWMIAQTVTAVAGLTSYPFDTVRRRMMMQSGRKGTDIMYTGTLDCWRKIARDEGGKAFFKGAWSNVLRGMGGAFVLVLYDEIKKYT
Sequence of Plasminogen activator inhibitor 1 (Homo sapiens) (P05121 24-402 limits assumed): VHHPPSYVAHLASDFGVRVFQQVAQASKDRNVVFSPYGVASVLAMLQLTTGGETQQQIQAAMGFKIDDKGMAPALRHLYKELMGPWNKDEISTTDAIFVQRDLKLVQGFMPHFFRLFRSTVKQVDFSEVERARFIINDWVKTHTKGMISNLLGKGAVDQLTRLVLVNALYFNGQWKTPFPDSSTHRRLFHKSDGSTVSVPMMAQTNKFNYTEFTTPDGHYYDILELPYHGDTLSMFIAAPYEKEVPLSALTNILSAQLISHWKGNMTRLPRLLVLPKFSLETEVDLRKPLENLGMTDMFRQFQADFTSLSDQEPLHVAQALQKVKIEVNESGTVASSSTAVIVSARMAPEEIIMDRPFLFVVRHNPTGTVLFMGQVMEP

i3XFLAG-NLS-CTDaa154-424
PSMs [1]: 11 PSMs | PSMs [2]: 44 PSMs | PSMs [3]: 10 PSMs | PSMs [4]: 100 PSMs | PSMs [5]: 7 PSMs | PSMs [6]: 5 PSMs | PSMs [7]: 11 PSMs | PSMs [8]: 3 PSMs | PSMs (Filamin-C (Homo sapiens)): 12 PSMs | PSMs [9]: 28 PSMs | PSMs [10]: 2 PSMs | PSMs [11]: 2 PSMs | PSMs [12]: 3 PSMs | PSMs [13]: 3 PSMs | PSMs [14]: 110 PSMs | PSMs [15]: 2 PSMs | PSMs [16]: 2 PSMs | PSMs [17]: 11 PSMs | PSMs [18]: 34 PSMs | PSMs [19]: 7 PSMs | PSMs [20]: 10 PSMs | PSMs [21]: 46 PSMs | PSMs [22]: 2 PSMs | PSMs [23]: 6 PSMs | PSMs [24]: 5 PSMs | PSMs [25]: 46 PSMs | PSMs [26]: 2 PSMs | PSMs [27]: 25 PSMs | PSMs [28]: 3 PSMs | PSMs [29]: 6 PSMs | PSMs [30]: 6 PSMs | PSMs [31]: 3 PSMs | PSMs [32]: 3 PSMs | PSMs [33]: 2 PSMs | PSMs [34]: 1 PSMs | PSMs [35]: 6 PSMs | PSMs [36]: 2 PSMs
